Reference: paper PMC3037847 (Nature, 2010)
No end group written: not given here.

T1: Apc2, cullin subunit in the S. cerevisiae APC/C (S. cerevisiae, UniProt Q12440 1-853)
T1 sequence: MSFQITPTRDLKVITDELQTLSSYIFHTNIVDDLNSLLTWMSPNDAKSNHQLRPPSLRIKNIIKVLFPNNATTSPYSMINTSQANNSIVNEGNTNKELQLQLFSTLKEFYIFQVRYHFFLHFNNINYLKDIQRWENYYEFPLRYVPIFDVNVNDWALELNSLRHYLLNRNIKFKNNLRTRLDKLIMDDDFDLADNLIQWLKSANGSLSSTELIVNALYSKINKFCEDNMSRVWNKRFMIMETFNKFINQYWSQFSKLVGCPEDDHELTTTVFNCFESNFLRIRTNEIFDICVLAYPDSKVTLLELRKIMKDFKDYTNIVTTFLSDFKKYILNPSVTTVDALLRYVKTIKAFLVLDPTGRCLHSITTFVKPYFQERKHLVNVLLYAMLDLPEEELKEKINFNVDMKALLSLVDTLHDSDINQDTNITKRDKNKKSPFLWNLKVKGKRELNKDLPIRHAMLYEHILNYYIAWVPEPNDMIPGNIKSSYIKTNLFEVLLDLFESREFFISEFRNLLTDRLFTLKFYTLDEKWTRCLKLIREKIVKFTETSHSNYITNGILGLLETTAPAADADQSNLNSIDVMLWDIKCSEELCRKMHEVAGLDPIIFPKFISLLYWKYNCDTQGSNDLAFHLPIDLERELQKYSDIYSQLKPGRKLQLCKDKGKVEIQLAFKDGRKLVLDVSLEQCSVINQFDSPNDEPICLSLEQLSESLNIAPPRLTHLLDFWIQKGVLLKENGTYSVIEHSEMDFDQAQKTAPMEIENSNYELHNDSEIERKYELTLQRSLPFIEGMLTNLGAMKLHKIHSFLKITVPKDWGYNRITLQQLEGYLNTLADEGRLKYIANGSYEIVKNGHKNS

B1: S. cerevisiae His6-Cdh1 (natural protein)
chain: MSTNLNPFMNNTPSSSPLKGSESKRVSKRPISSSSSASLLSSPSRRSRPSTVYGDRYIPSRTDIDFNSIVSISSMASVPALNPSSTEDQVEYQKERQAHETYNTLLKNELFGEMLSKDTVGSESSIDRIKNTRPSTRGNVHAENTTRHGYELERVSTPPPEAAGLEEFSPHSTPVTPRRLFTSQQDEITRPSSNSVRGASLLTYQQRKGRRLSAASLLQSQFFDSMSPVRPDSKQLLLSPGKQFRQIAKVPYRVLDAPSLADDFYYSLIDWSSTDVLAVALGKSIFLTDNNTGDVVHLCDTENEYTSLSWIGAGSHLAVGQANGLVEIYDVMKRKCIRTLSGHIDRVACLSWNNHVLTSGSRDHRILHRDVRMPDPFFETIESHTQEVCGLKWNVADNKLASGGNDNVVHVYEGTSKSPILTFDEHKAAVKAMAWSPHKRGVLATGGGTADRRLKIWNVNTSIKMSDIDSGSQICNMVWSKNTNELVTSHGYSKYNLTLWDCNSMDPIAILKGHSFRVLHLTLSNDGTTVVSGAGDETLRYWKLFDKPKAKVQPNSLIFDAFNQIR
B2: Apc3/Cdc27, TPR subunit in the S. cerevisiae APC/C (natural protein)
chain: MAVNPELAPFTLSRGIPSFDDQALSTIIQLQDCIQQAIQQLNYSTAEFLAELLYAECSILDKSSVYWSDAVYLYALSLFLNKSYHTAFQISKEFKEYHLGIAYIFGRCALQLSQGVNEAILTLLSIINVFSSNSSNTRINMVLNSNLVHIPDLATLNCLLGNLYMKLDHSKEGAFYHSEALAINPYLWESYEAICKMRATVDLKRVFFDIAGKKSNSHNNNAASSFPSTSLSHFEPRSQPSLYSKTNKNGNNNINNNVNTLFQSSNSPPSTSASSFSSIQHFSRSQQQQANTSIRTCQNKNTQTPKNPAINSKTSSALPNNISMNLVSPSSKQPTISSLAKVYNRNKLLTTPPSKLLNNDRNHQNNNNNNNNNNNNNNNNNNNNNNNNIINKTTFKTPRNLYSSTGRLTTSKKNPRSLIISNSILTSDYSITLPEIMYNFALILRSSSQYNSFKAIRLFESQIPSHIKDTMPWCLVQLGKLHFEIINYDMSLKYFNRLKDLQPARVKDMEIFSTLLWHLHDKVKSSNLANGLMDTMPNKPETWCCIGNLLSLQKDHDAAIKAFEKATQLDPNFAYAYTLQGHEHSSNDSSDSAKTCYRKALACDPQHYNAYYGLGTSAMKLGQYEEALLYFEKARSINPVNVVLICCCGGSLEKLGYKEKALQYYELACHLQPTSSLSKYKMGQLLYSMTRYNVALQTFEELVKLVPDDATAHYLLGQTYRIVGRKKDAIKELTVAMNLDPKGNQVIIDELQKCHMQE

Columns and labels:
[1] = target: APC/C in complex with Cdh1 (APC/C^Cdh1), budding yeast (S. cerevisiae) (UniProt P53886)
S. cerevisiae His6-Cdh1 = target: B1; test: cryo-EM structure
[2] = target: T1, Apc2, cullin subunit in the S. …; test: cryo-EM structure
[3] = target: B2; test: cryo-EM structure
cryo-EM structure = target: the molecule itself; test: cryo-EM structure

**Q.** NVPKKRHALDDVSNFHNK (not fully specified) [18-residue D-box peptide modelled on cyclin B (S. pombe Cdc13)] was tested. Which inhibition of APC/C^Cdh1 ubiquitylation of Clb2 by the peptide [1] did it give?
**A.** The inhibition of APC/C^Cdh1 ubiquitylation of Clb2 by the peptide was 0.1 mM.

**Q.** Does NVPKKRHALDDVSNFHNK (not fully specified) [18-residue D-box peptide modelled on cyclin B (S. pombe Cdc13)] bind (S. cerevisiae His6-Cdh1)?
**A.** Result: binds

**Q.** Does B1 bind [2]?
**A.** Result: binds

**Q.** Does B1 bind [3]?
**A.** Result: binds

**Q.** Does B2 bind (cryo-EM structure)?
**A.** Result: binds
